This note sets out measurements from publication PMC2627783.

The target in the test is HscA (UniProt P0A6Z1).

Substitutions are numbered along the chain they refer to. Names may count otherwise.

Sequence of HscA (P0A6Z1 whole entry): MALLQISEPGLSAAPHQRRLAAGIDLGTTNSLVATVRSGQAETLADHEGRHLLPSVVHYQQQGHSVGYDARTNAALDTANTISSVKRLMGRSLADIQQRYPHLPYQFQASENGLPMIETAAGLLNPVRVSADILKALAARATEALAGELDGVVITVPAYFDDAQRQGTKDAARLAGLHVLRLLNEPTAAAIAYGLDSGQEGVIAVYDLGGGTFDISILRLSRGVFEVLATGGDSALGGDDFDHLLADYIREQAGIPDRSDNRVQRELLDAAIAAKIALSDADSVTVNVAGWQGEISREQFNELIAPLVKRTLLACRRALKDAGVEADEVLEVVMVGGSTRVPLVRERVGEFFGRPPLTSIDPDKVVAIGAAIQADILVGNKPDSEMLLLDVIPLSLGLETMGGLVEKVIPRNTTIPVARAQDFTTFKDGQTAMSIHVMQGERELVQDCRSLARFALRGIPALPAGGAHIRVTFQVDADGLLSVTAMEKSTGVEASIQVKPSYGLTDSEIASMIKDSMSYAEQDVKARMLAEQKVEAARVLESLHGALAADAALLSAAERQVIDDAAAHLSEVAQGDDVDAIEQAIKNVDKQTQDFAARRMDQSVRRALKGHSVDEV

B1: HscB(E97A,E100A,E104A) (natural protein)
chain: MDYFTLFGLPARYQLDTQALSLRFQDLQRQYHPDKFASGSQAEQLAAVQQSATINQAWQTLRHPLMRAEYLLSLHGFDLASEQHTVRDTAFLMEQLALRAELDAIEQAKDEARLESFIKRVKKMFDTRHQLMVEQLDNETWDAAADTVRKLRFLDKLRSSAEQLEEKLLDF
Regarding B1, the HscA ATPase activity, 23 °C, in the absence of IscU: maximal stimulation worked out at 4.3 fold.

B2: HscB(L92A,M93A,F153A) (natural protein)
chain: B1 chain with L92A, M93A, A97E, A100E, A104E, F153A
In the case of B2, the HscA ATPase activity, 23 °C, in the absence of IscU: maximal stimulation turned out to be 3.8 fold.
